Source: FireProtDB (doi:10.1016/j.bbapap.2014.10.010)

B1: Alanine--glyoxylate aminotransferase, P21549 (parent)
chain: MASHKLLVTPPKALLKPLSIPNQLLLGPGPSNLPPRIMAAGGLQMIGSMSKDMYQIMDEIKEGIQYVFQTRNPLTLVISGSGHCALEAALVNVLEPGDSFLVGANGIWGQRAVDIGERIGARVHPMTKDPGGHYTLQEVEEGLAQHKPVLLFLTHGESSTGVLQPLDGFGELCHRYKCLLLVDSVASLGGTPLYMDRQGIDILYSGSQKALNAPPGTSLISFSDKAKKKMYSRKTKPFSFYLDIKWLANFWGCDDQPRMYHHTIPVISLYSLRESLALIAEQGLENSWRQHREAAAYLHGRLQALGLQLFVKDPALRLPTVTTVAVPAGYDWRDIVSYVIDHFDIEIMGGLGPSTGKVLRIGLLGCNATRENVDRVTEALRAALQHCPKKKL

Variants of: B1
Conditions: Homo sapiens; pH 7.4; Thermal; DSC; Hepes 20 mM; NaCl 200 mM; transition: 2; reversible: No; structure 1H0C; whole UniProt chain shown

Variant	Tm	change of melting temperature, mutant - wild type (higher = more stable)	unfolding enthalpy (calorimetric)
MASHKLLVTPLKALLKPLSIPNQLLLGPGPSNLPPRIMAAGGLQMIGSMSKDMYQIMDEIKEGIQYVFQTRNPLTLVISGSGHCALEAALVNVLEPGDSFLVGANGIWGQRAVDIGERIGARVHPMTKDPGGHYTLQEVEEGLAQHKPVLLFLTHGESSTGVLQPLDGFGELCHRYKCLLLVDSVASLGGTPLYMDRQGIDILYSGSQKALNAPPGTSLISFSDKAKKKMYSRKTKPFSFYLDIKWLANFWGCDDQPRMYHHTIPVISLYSLRESLALIAEQGLENSWRQHREAAAYLHGRLQALGLQLFVKDPALRLPTVTTVAVPAGYDWRDIVSYVMDHFDIEIMGGLGPSTGKVLRIGLLGCNATRENVDRVTEALRAALQHCPKKKL [P11L I340M]	76.6 °C	6.6 °C	375 kcal/mol
MASHKLLVTPLKALLKPLSIPNQLLLGPGPSNLPPRIMAAGGLQMIGSMSKDMYQIMDEIKEGIQYVFQTRNPLTLVISGSGHCALEAALVNVLEPGDSFLVGANGIWGQRAVDIGERIGARVHPMTKDPGGHYTLQEVEEGLAQHKPVLLFLTHGESSTGVLQPLDGFGELCHRYKCLLLVDSVASLGGTPLYMDRQGIDILYSGSQKALNAPPGTSLISFSDKAKKKMYSRKTKPFSFYLDIKWLANFWGCDDQPRMYHHTIPVISLYSLRESLALIAEQGLENSWRQHREAAAYLHGRLQALGLQLFVKDPALRLPTVTTVAVPAGYDWRDIVSYVIDHFDIEIMGGLGPSTGKVLRIGLLGCNATRENVDRVTEALRAALQHCPKKKL [P11L]	73.8 °C	3.8 °C	399 kcal/mol
MASHKLLVTPPKALLKPLSIPNQLLLGPGPSNLPPRIMAAGGLQMIGHMSKEMYQIMDEIKEGIQYVFQTRNPLTLVISGSGHCALEAALVNVLEPGDSFLVGANGIWGQRAADIGERIGARVHPMTKDPGGHYTLQEVEEGLAQHKPVLLFLTHGESSTGVLQPLDGFGELCHRYKCLLLVDSVASLGGTPLYMDRQGIDILYSGSQKALNAPPGTSLISFSDKAKKKMYSRKTKPFSFYLDIKWLANFWGCDDQPRMYHHTIPVISLYSLRESLALIAEQGLENSWRQHREAAAYLHGRLQALGLQLFVKDPALRLPTVTTVAVPAGYDWRDIVSYVMDHFDIEIMGGLGPSTGKVLRIGLLGCNATRENVDRVTEALRAALQHCPKKKL [S48H D52E V113A I340M]	91 °C	21 °C	613 kcal/mol
MASHKLLVTPPKALLKPLSIPNQLLLGPGPSNLPPRIMAAGGLQMIGHMSKEMYQIMDEIKEGIQYVFQTRNPLTLVISGSGHCALEAALVNVLEPGDSFLVGANGIWGQRAVDIGERIGARVHPMTKDPGGHYTLQEVEEGLAQHKPVLLFLTHGESSTGVLQPLDGFGELCHRYKCLLLVDSVASLGGTPLYMDRQGIDILYSGSQKALNAPPGTSLISFSDKAKKKMYSRKTKPFSFYLDIKWLANFWGCDDQPRMYHHTIPVISLYSLRESLALIAEQGLENSWRQHREAAAYLHGRLQALGLQLFVKDPALRLPTVTTVAVPAGYDWRDIVSYVMDHFDIEIMGGLGPSTGKVLRIGLLGCNATRENVDRVTEALRAALQHCPKKKL [S48H D52E I340M]	89.5 °C	19.5 °C	315 kcal/mol
MASHKLLVTPPKALLKPLSIPNQLLLGPGPSNLPPRIMAAGGLQMIGHMSKDMYQIMDEIKEGIQYVFQTRNPLTLVISGSGHCALEAALVNVLEPGDSFLVGANGIWGQRAVDIGERIGARVHPMTKDPGGHYTLQEVEEGLAQHKPVLLFLTHGESSTGVLQPLDGFGELCHRYKCLLLVDSVASLGGTPLYMDRQGIDILYSGSQKALNAPPGTSLISFSDKAKKKMYSRKTKPFSFYLDIKWLANFWGCDDQPRMYHHTIPVISLYSLRESLALIAEQGLENSWRQHREAAAYLHGRLQALGLQLFVKDPALRLPTVTTVAVPAGYDWRDIVSYVIDHFDIEIMGGLGPSTGKVLRIGLLGCNATRENVDRVTEALRAALQHCPKKKL [S48H]	85.5 °C	15.5 °C	520 kcal/mol
MASHKLLVTPLKALLKPLSIPNQLLLGPGPSNLPPRIMAAGGLQMIGSMSKDMYQIMDEIKEGIQYVFQTRNPLTLVISGSGRCALEAALVNVLEPGDSFLVGANGIWGQRAVDIGERIGARVHPMTKDPGGHYTLQEVEEGLAQHKPVLLFLTHGESSTGVLQPLDGFGELCHRYKCLLLVDSVASLGGTPLYMDRQGIDILYSGSQKALNAPPGTSLISFSDKAKKKMYSRKTKPFSFYLDIKWLANFWGCDDQPRMYHHTIPVISLYSLRESLALIAEQGLENSWRQHREAAAYLHGRLQALGLQLFVKDPALRLPTVTTVAVPAGYDWRDIVSYVMDHFDIEIMGGLGPSTGKVLRIGLLGCNATRENVDRVTEALRAALQHCPKKKL [P11L I340M H83R]	58.2 °C	-11.8 °C	235 kcal/mol
MASHKLLVTPPKALLKPLSIPNRLLLGPGPSNLPPRIMAAGGLQMIGSMSKDMYQIMDEIKEGIQYVFQTRNPLTLVISGSGHCALEAALVNVLEPGDSFLVGANGIWGQRAVDIGERIGARVHPMTKDPGGHYTLQEVEEGLAQHKPVLLFLTHGESSTGVLQPLDGFGELCHRYKCLLLVDSVASLGGTPLYMDRQGIDILYSGSQKALNAPPGTSLISFSDKAKKKMYSRKTKPFSFYLDIKWLANFWGCDDQPRMYHHTIPVISLYSLRESLALIAEQGLENSWRQHREAAAYLHGRLQALGLQLFVKDPALRLPTVTTVAVPAGYDWRDIVSYVIDHFDIEIMGGLGPSTGKVLRIGLLGCNATRENVDRVTEALRAALQHCPKKKL [Q23R]	84.5 °C	14.5 °C	475 kcal/mol
